This is an account of results in PMC5800818 (2018).

Assay [1] has as its target T1, rhodamine-labeled Mdm2^216–302 (human, UniProt Q00987-11 216-302, rhodamine label (site not stated)). Description: FP.
For assay [2], the target named is T1, rhodamine-labeled Mdm2^216–302. Description: FP. This is another data set of the same source.
Assay [3] has the same target. Description: FP. The source holds these as a separate data set.
For assay [4] the target is unchanged. The experiment in a line: FP; GPpY peptide preassembled with PTBi.

T1 sequence (Q00987 210-296): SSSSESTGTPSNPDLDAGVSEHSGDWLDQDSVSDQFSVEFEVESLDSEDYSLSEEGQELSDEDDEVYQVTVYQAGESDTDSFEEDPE

The Kd is the free concentration of one partner at which half of the binding sites on the other are occupied at equilibrium, for simple one-to-one binding. A low value points to a tighter complex. With GMHICEDAVKRLKAERKFFKGFFGKTGKKAVKAVLWVS (other) [thioredoxin-scaffolded Numb^54–91, His fusion], binding in assay [1] was put at a Kd of 5.1 µM.

B1: Numb-PTBo, purified (domain or fragment)
chain: SRPHQWQTDEEGVRTGKCSFPVKYLGHVEVDESRGMHICEDAVKRLKATGKKAVKAVLWVSADGLRVVDEKTKDLIVDQTIEKVSFCAPDRNFDRAFSYICRDGTTRRWICHCFMAVKDTGERLSHAVGCAFAACLERKQKREKE
Molecule B1 showed a Kd in assay [2] of 155 µM.

B2: PTBi F75-76A (protein)
chain: SRPHQWQTDEEGVRTGKCSFPVKYLGHVEVDESRGMHICEDAVKRLKAERKFFKGAAGKTGKKAVKAVLWVSADGLRVVDEKTKDLIVDQTIEKVSFCAPDRNFDRAFSYICRDGTTRRWICHCFMAVKDTGERLSHAVGCAFAACLERKQKREKE
For B2, in assay [3], the Kd was 43.5 µM.

B3: PTBi F71-72A (protein)
chain: SRPHQWQTDEEGVRTGKCSFPVKYLGHVEVDESRGMHICEDAVKRLKAERKAAKGFFGKTGKKAVKAVLWVSADGLRVVDEKTKDLIVDQTIEKVSFCAPDRNFDRAFSYICRDGTTRRWICHCFMAVKDTGERLSHAVGCAFAACLERKQKREKE
For the molecule B3, the Kd in assay [3] was 29 µM. Against the preceding molecule, the Kd is about 1.5-fold lower.

B4: PTBi F71-72-75-76A (protein)
chain: SRPHQWQTDEEGVRTGKCSFPVKYLGHVEVDESRGMHICEDAVKRLKAERKAAKGAAGKTGKKAVKAVLWVSADGLRVVDEKTKDLIVDQTIEKVSFCAPDRNFDRAFSYICRDGTTRRWICHCFMAVKDTGERLSHAVGCAFAACLERKQKREKE
Regarding B4, the Kd in assay [3] was determined as 60.6 µM.

B5: PTBi in complex with GPpY (complex)
chain 1: SRPHQWQTDEEGVRTGKCSFPVKYLGHVEVDESRGMHICEDAVKRLKAERKFFKGFFGKTGKKAVKAVLWVSADGLRVVDEKTKDLIVDQTIEKVSFCAPDRNFDRAFSYICRDGTTRRWICHCFMAVKDTGERLSHAVGCAFAACLERKQKREKE
chain 2: AYIGPYL
modifications: phosphotyrosine at position 6 (AYIGPpYL)
Turning to B5, in assay [4], the affinity, expressed as Kd, was 5.8 µM.

B6: Numb-PTBi (Numb^20–175), purified (domain or fragment)
chain: SRPHQWQTDEEGVRTGKCSFPVKYLGHVEVDESRGMHICEDAVKRLKAERKFFKGFFGKTGKKAVKAVLWVSADGLRVVDEKTKDLIVDQTIEKVSFCAPDRNFDRAFSYICRDGTTRRWICHCFMAVKDTGERLSHAVGCAFAACLERKQKREKE
As to B6, the Kd in assay [1] is 6.1 µM; in assay [2], 5.5 µM. The molecule KRLKAERKFFKGFFGKTGKK (other) [thioredoxin-scaffolded Numb^63–82, His fusion] had a dissociation constant Kd in assay [1] of 86 µM.

B7: Numb isoform-1 full-length, purified (natural protein)
chain: MNKLRQSFRRKKDVYVPEASRPHQWQTDEEGVRTGKCSFPVKYLGHVEVDESRGMHICEDAVKRLKAERKFFKGFFGKTGKKAVKAVLWVSADGLRVVDEKTKDLIVDQTIEKVSFCAPDRNFDRAFSYICRDGTTRRWICHCFMAVKDTGERLSHAVGCAFAACLERKQKREKECGVTATFDASRTTFTREGSFRVTTATEQAEREEIMKQMQDAKKAETDKIVVGSSVAPGNTAPSPSSPTSPTSDATTSLEMNNPHAIPRRHAPIEQLARQGSFRGFPALSQKMSPFKRQLSLRINELPSTMQRKTDFPIKNAVPEVEGEAESISSLCSQITNAFSTPEDPFSSAPMTKPVTVVAPQSPTFQANGTDSAFHVLAKPAHTALAPVAMPVRETNPWAHAPDAANKEIAATCSGTEWGQSSGAASPGLFQAGHRRTPSEADRWLEEVSKSVRAQQPQASAAPLQPVLQPPPPTAISQPASPFQGNAFLTSQPVPVGVVPALQPAFVPAQSYPVANGMPYPAPNVPVVGITPSQMVANVFGTAGHPQAAHPHQSPSLVRQQTFPHYEASSATTSPFFKPPAQHLNGSAAFNGVDDGRLASADRHTEVPTGTCPVDPFEAQWAALENKSKQRTNPSPTNPFSSDLQKTFEIEL
B7 gave a dissociation constant Kd in assay [2] of 5.6 µM. That is a single-digit micromolar value.
